Measurements: the nanobody polyreactivity screen of Harvey et al. (2022)

Assay: yeast display, Sf9 membrane polyspecificity reagent, FACS + sequencing; frameworks hold sequencing errors
Outline: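 A synthetic nanobody library was expressed on Saccharomyces cerevisiae BJ5465 by galactose induction for 36–48 hours. The library was stained for 1 hour at 4 °C with 10% biotinylated, detergent-solubilized Sf9 membrane reagent and enriched with streptavidin microbeads before FACS. Low and high (top ~1%) gates were set on anti-HA fluorescence for expression and streptavidin fluorescence for reagent binding, and each polyreactivity label reflects the gate of origin.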

| Sequence | polyreactivity (PSR sort gate) |
| --- | --- |
| QVQLVESGGGLVQAGGSLRLSCAASGFIFPNNAMGWYRQAPGKERELVARISYGGGDTHYADSVKGRFTISRDTAKNTVYLQMNSLKPEDTAVYYCAVKDGQDDYWGQGTQVTVSS | low polyreactivity |
| QVQLVESGGGLVQAGGSLRLSCAASGRILVVNAMGWYRQAPRKERELVAAISTTGGRTYYADSVKGRFTISRDNAKNTVYLQMKSLKPEDTAVYYCSKDDGRFGRTHEHDYWGHGTQVTVSS | high polyreactivity |
| QVQLVESGGGLVQAGGSLRLSCAASGSTFEYYAMGWYRQAPGKEREFVAAITLSGGRTYYADSVKGRFTISRDNAKNTVYLQMNSLKPEDTAVYYCNVVVTWWLPSEYDYWGQGTQVTVSS | high polyreactivity |
| QVQLVESGGGLVQAGGSLRLSCAASGRIFNAYAMGWYRQAPGKERELVASISWSGGSTFYADSVKGRFTISRDNAKNTVYLQMNSLKPEDTAVYYCNADRRSSRHWWSITAYEYWGQGTQVTVSS | high polyreactivity |
| QVQLVESGGGLVQAGGSLRLSCAASGFIFDWNTMGWYRQAPGKERELVAAITESSGSTYYADSVKGRFTISRDNAKNTVYLQMNSLKPEDTAVYYCAAELDVYVSIGSRFHFDYWGQGTQVTVSS | low polyreactivity |
| QVQLVESGGGLVQAGGSLRLSCAASGSILDPNAMGWYRQAPGKERELVAAISSSGGSTYYADSVKGRFTISRDNAKNTVYLQMNSLKPEDTAVYYCAADHFIPIYSKYDYWGQGTQVTVSS | high polyreactivity |
| QVQLVESGGGLVQAGGSLRLSCAASGFTFGTYNMGWSRQAPGKERELVASISRRGGRTDYADSVKGRFTISRHNAKNTVYLQMNSLKPEDTAVYYCNAAYPYGGFPYDYWGQGTQVTVSS | high polyreactivity |
| QVQLVESGGGLVQAGGSLRLSCAASGFTFYRNAMGWYRQAPRKERDLVAAISDSGGRTYYADSVKGRFTISRDNAMNTVYLQMNSLIPEDTAVYYCAADTVIWWVEYEYWGQGTQVTVSS | high polyreactivity |
| QVQLVESAGGLVQAGGSLRLSCAASGSTFDYYAMGWYRQAPGKERELVAAISRTGGRTYYADSVKGRFTISRDNAKNTVYLQMNSLKPEDTAVYYCATRNGRQYSVSYRYYYWGQGTQVTVSS | low polyreactivity |
| QVQLVESGGGLVQAGGSLRLSCAASGRIFTINAMGWYRQAPGKERELVAAITGSAASTYYADSVKGRFTISRDNAKNTVYLQMNSLKPEDTAVYYCAAGYRRIPYEYWGQATQVTVSS | high polyreactivity |
| QVQLVESGGVLVQAGGRLGLSCAASGSTLRAYAMGWYRQATGKVRELVATISSGGRTYYADSVKGRFTISRDNAKNTVYLQMNSLKPEDTAVYYSAKREHGFFYYTYDYWGQGTQVTVSS | low polyreactivity |
| QVQLVESGGGLVQAGGSLRLSCAASGSTFPWNAMGWYSQAPGKEREMVAAINYGNGSTYYADSVKGRFTISRDNAKNTVYLQMNSLKPEDTAVYYCNADYTGTRTDSVSPEYEYWGQGTQVTVSS | low polyreactivity |
| QVQLVESGRGLVQAGGSLRLSCAACGRIFYRYTMGSYRQAPGKERELVAAITRGGNTYYADSVKGRFTISRDNANYTVYLQMNSLKPEDTAVYYCAKKAPSDRNNYWGQGTQVTVSS | high polyreactivity |
| QVQLVESGGGLVQAGGSLSLSCAASGSIFLRNAMGWYRQAPGKETEYVASITWNGASTSYADSVMGRFTISRDNAKNTVYLQMNSLKPEDTAVYYCAARDSQYGGPGMDYWGQGTQVTVSS | low polyreactivity |
| QVQLVESGGGLVQAGGSLRLSCAASGSIIVYYAMGWYRQAPGKQRELVAANDQSGGSTYYADSVKGRFTISRDNAKNTVYLQMNSLKPEDTAVYYCASVHSLYWLGDDTYGYDYWGQGTQVTVSS | low polyreactivity |
| QVQLVESGGGLVQAGGSLRLSCAASGFIFSKNAMGWYRQAPGKERELVAAISTRGGSTYYADSVKGRFTISRDNAKNTVYLQMNSLKPEDTAVYYCNKEWYPYKHNYWGQGTQVTVSS | low polyreactivity |
| QVQLVESGGGLVQAGGSLRLSCSASGSIFPYYSMGWYRQAPGQERQLVAAISYSGGRTRYADSVKGRFTISRDNAKNTVYLQMNSLKPEDTAVYYCAVVDRHQPYGRQLDYWGQGTQVTVSS | low polyreactivity |
| QVQLVESWGGLVQEGGSLRLSCAASGSTFGPYAMGWYRQAPGKERELVAAITESGDSTYYADSVKGRFTISRDNAKNSVYLQMNSLKPEDTAVYYCAATRGSSEYYYWGQGTQVTVSS | low polyreactivity |
| QVQLVESGGGLLQAGGSLRLSCAASGSIFPDYAKGSYRQAPGKERELVAAITGIDGSTYADSVKGRFTISRVHAKNSVYLQINRLKPEDTAVYYCNTESIRYVPWFRFDYWGQGTQVTVSS | low polyreactivity |
| QVQLVESGGGLVQAGGSLRLSCAASGITFRRYAMGWYRPAPGKERELVASISRGGSTYYADSVKGRFTISRDNAKNTVYLQMNSLTPEDTAVYYCAADVAGRYDYWGQGTQVTVSS | high polyreactivity |
| QVQLVESGGGLVQAGGSLRLSCAASGSTFDYYDMGWYRQAPGKERELVAAISSGGDSTYYADSVKGRFTISRDNAKNTVYLQMNSLKPEDTAVYYCAAAVYYGQSVWYYYWGQGTQVTVSS | high polyreactivity |
| QVQLVESGGGLVQAGGSLRLSCAASGRTFSWYAMGWYRQAPGKEREFVATISASGGSTYYADSVKGRFTISRDNAKNTVYLQMNSLKPEDTAVYYCAADRSIRFFSPANYDYWGQGTQVTVSS | high polyreactivity |

| Sequence | polyreactivity (PSR sort gate) |
| --- | --- |
| QVQLVESGGGLVQAGGSLRLSCAASGYTFDAYAMGWYRQAPGKERELVAAITTNGGSTYYADSVKGRFTISRDNAKNTVFLQMNSLIPEDTAVFYCKAEYWYEGRYPYDYWGQGTQVTVSS | low polyreactivity |
| QVQLVESGGGLVQAGGSLRLSCAASGRTFIANAMGWYRKAPRKERELLAVITLNGGSTYYADSVKGRFTISRDNAKKTVYLQMNSLKPEDTAVYYCNARYYPLYSKSYDSWGQGTQVPVSS | low polyreactivity |
| QVQLVESGGGLVQAGGSLRLSCAASGSTFAYNAMGWYIQAPGKERELVAAISWGDGITYYADSVKGRFSISRDYAKNTVYLQINILKPEDTAVITRDFGYWGQGTQVTVSS | low polyreactivity |
| QVQLVESGGGLVQAGGSLRLSCAASGSTFQLYSMGWYRQAPGKERELVAAIRWRGGSTYYADSVKGRFTISRDNAKNTVYLQMNSLKPEDTAFYYCAAVGYNYNVEYYYWGQGTQVTVSS | high polyreactivity |
| QVQLVESGGGLVQAGGSLRLICAASGITFYRYDMGWYRQAPGKERELVAAISTRGGSTYYADSVKGRFTISRDNAKNTVYLQMNSLKPEDTAVYYCAKERVGTSLPFKDYYWGQGTQVTVSS | low polyreactivity |
| QVQLVESGGGLVQAGGSLRLSCAASGFIFYDYSMAWYRQAPGKEREFVAAISWSGGRTYYADSVKGRFTISRDNAKNTVYLQMNSLKPVDTAVYYCAVDAYRYWWTTYVSDFDYWGQGTQVTVSS | high polyreactivity |
| QVQLVESRGGLVQAGGSLRLSCSASGITFNHYAMGWYRQAPGKERQLVAAITGSGGSTYYADSVKGRFTISRDNGKNTVYLQMNSLKPEDTAVYYCKTSPKLTYAVLYDYWGQGTQVTVSS | high polyreactivity |
| QVQLVESGGGLVQAGGSLRLSSAASGRTFQDNAMGSYRQAPGKERELVAAISWRGGSTNYADSVKGRFTISRDNAKNTVYLQMNSLIPEDTAVYYCNRDPRKYGKLDYWGQGTQVTVSS | low polyreactivity |
| QVQLVESGGGLVQAGGSLRLSCAASGSTFGYYAMGWYRQAPGKEREVVAALDSSGDTYYADSVKGRFTISRDNAKNTVYFQMNSLKPEDTAVYYCAADFWVSSYWGYGYWGQGTQVTVSS | high polyreactivity |
| QVQLVESGGGLVQAGGSLRLSCAASGSTFDIYVMGWYRQAPGKEREFVAAITTTTGRTNYADSVKGRFTISRDNAKNTVYLQMNSLKPEDTAVYYCAAYVTWGKLWYGYWGQGTQVTVSS | high polyreactivity |
| QVQLVESGGGLVQAGGSLRLSCAASGITFRYYAMGWYRQAPGKERELVATITRGGSTYYADSVKGRFTISRDNAKNTVYLQMNSLKPEDTAVYYCAARQWYRYKVRFDYWGQGTQVTVSS | high polyreactivity |
| QVQLVESGGGLVQAGGSLRLSCAASGLTIFVNAMGWYRQAPGKERELVATISGGGSTYYADSVKGRFTISRDNAKNTVYLQMNSLKPEDTAVYYCNADVLFYTYYTRGRFDFDYWGQGTQVTVSS | low polyreactivity |
| QVQLVESGGGLVQAGGSLRLSCAASGRIYPYYDMGSYRPAPGKERELVAAITWNGGSTYYADSVKGRFTISRDYAKNTVYLQMNSLKPEDTAVYYCAVEPYYYGEDYWGQGTQVTVSS | low polyreactivity |
| QVQLVESGGGLVQAGGSLRLSCAASGSIFNYYAMGWNRQAPVKETEFVADISGSGSSTYYADSVKGRFTISRDNAKNTVYLQMNSLKPEDTAVYYCIAEYYWGVGYYPYSDYGYWGQGTQVTVSS | low polyreactivity |
| QVQLVESGGGLVQAGGSLRLSCAASGRNFYGNAMGWYRQAPGKERELVAAISSGTSTNYADSVKGRFTISRDNAKNTVYLQMNSLKPEDTAVYYCAAGSYSRYLYSLYFDFDYWGQGTQVTVSS | low polyreactivity |
| QVQLVESGGGLVQAGGSLRLSCAASGSIFYNNSKGWYRPAPGKERELVAAISLRGGSTYYADSVKGRFTISRDNAKNTVYLQMNSLKPEDSAVYYCAAVTGARYYPARASRGKFDYWGQGTQVTVSS | high polyreactivity |
| QVQLVESGGGLVQAGGSLRLSCAASGSTFDYYAMGWYRQAPGKERELVAAISGSGGSTYYADSVKGRITISRDNAKNTVYLQMNSLKPEDTAVYYCATVRSRLFGQYYYWGQGTQVTVSS | high polyreactivity |
| QVQLVESAGGLVQAGGSLRLSCAASGYIYGYYVMGWNRQAPGKERELVAAISGRGGRTYYADSVKGRFTISRDNAKNTVYLQMNSLKPEDTAVYYCAAADLPGTMYYWGQGTQVTVSS | high polyreactivity |
| QVQLVESGGGLVQAGGSLRLSCAASGSIFYTNVMGWYRQAPGKERELVAVISSGGSTYYADSVKGRFTISRDNAKNTVYFQMNSLKPEDTAGYYCNADSVSSPPYYDYWGQGTQVTVSS | high polyreactivity |
| QVQLVESGGGLVQAGGSLRLSCAASGRIFVGYAMVWYRQAPGKERELVAGISRSGDSTYYADSVKGRFTISRDNAKNTVYLQMNSLKPEDTAVYYCAARIIYWGYYYWGQGTQVTVSS | high polyreactivity |
| QVQLVESGGGLVQAGGSLRLSCAASGRIFTIYAMGWYRQAPGKERELVATISRRGGSTYYADSVKGRFTISRDNSKNTVYLQMNSLKPEDTAVYYCAAESVITWWAYDYWGQGTQVTVSS | high polyreactivity |
